In US20260116991A1 (HAINAN SIMCERE ZAIMING PHARMACEUTICAL, published 2026):

T1: polypeptide GC3pep (human)
T1 construct: also called membrane proximal polypeptide GC3pep
T1 peptide: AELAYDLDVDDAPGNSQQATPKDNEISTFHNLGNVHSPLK


Assays:
polypeptide GC3pep [1] = biological target: T1, polypeptide GC3pep; experiment: ELISA, GC3pep coated, antibody 1 nM;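 also: bound antibody detected with an HRP-conjugated secondary antibody and TMB substrate, reaction stopped with HCl, after 2 h binding at 37 °C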
polypeptide GC3pep [2] = biological target: T1, polypeptide GC3pep; experiment: ELISA, GC3pep coated, antibody 0.001 nM
polypeptide GC3pep [3] = biological target: T1, polypeptide GC3pep; experiment: ELISA, GC3pep coated, antibody 10 nM;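 also: antibody bound to the coated peptide for 2 h at 37 °C, detected through an HRP-conjugated secondary antibody with TMB colour development stopped by acid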
polypeptide GC3pep [4] = biological target: T1, polypeptide GC3pep; experiment: ELISA, GC3pep coated, antibody 0.1 nM;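 also: antibody allowed to bind the coated plate 2 h at 37 °C, then detected via HRP-conjugated secondary antibody and TMB development for 10 min, stopped with HCl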
polypeptide GC3pep [5] = biological target: T1, polypeptide GC3pep; experiment: ELISA, GC3pep coated, antibody 0.0001 nM
polypeptide GC3pep [6] = biological target: T1, polypeptide GC3pep; experiment: ELISA, GC3pep coated, antibody 0.01 nM;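 also: bound antibody detected with an HRP-conjugated secondary antibody and TMB substrate, color reaction stopped with HCl before reading absorbance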
polypeptide GC3pep [7] = biological target: T1, polypeptide GC3pep; experiment: ELISA, GC3pep coated, antibody 100 nM;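 also: detection with an HRP-conjugated secondary antibody and TMB substrate, color reaction stopped with HCl before absorbance reading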
[8] = biological target: T2, murine GPC3-His protein (Sino Biological, Cat. No. 50989-M08B) (murine, UniProt Q8CFZ4 25-558); experiment: ELISA, coated antigen
T2 construct: Bought protein; also called murine GPC3 protein; mouse GPC3-his protein; not shown: His tag
T2 sequence (Q8CFZ4 25-558 limits assumed): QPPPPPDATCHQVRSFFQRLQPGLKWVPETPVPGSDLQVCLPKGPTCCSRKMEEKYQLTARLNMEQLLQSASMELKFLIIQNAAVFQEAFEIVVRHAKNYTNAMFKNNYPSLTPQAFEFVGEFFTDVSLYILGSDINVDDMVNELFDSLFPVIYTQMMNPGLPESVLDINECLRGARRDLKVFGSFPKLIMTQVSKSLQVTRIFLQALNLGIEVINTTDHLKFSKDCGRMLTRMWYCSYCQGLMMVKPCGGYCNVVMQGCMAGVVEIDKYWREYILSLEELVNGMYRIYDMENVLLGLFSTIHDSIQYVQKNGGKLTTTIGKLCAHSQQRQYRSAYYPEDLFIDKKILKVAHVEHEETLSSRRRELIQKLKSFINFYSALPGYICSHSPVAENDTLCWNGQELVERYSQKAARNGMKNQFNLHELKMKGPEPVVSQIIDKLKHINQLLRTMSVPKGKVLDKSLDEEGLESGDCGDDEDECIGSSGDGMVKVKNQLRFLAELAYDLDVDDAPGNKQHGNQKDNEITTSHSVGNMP

OD450 nm (polypeptide GC3pep [1]) [OD450 nm]	OD450 nm (polypeptide GC3pep [2]) [OD450 nm]	OD450 nm (polypeptide GC3pep [3]) [OD450 nm]	OD450 nm (polypeptide GC3pep [4]) [OD450 nm]	OD450 nm (polypeptide GC3pep [5]) [OD450 nm]	OD450 nm (polypeptide GC3pep [6]) [OD450 nm]	OD450 nm (polypeptide GC3pep [7]) [OD450 nm]	binding result [8]	Binder
0.03	0.08	0.04	0.03	0.05	0.04	0.06		F4.13.7 (antibody, human IgG1, kappa, V domains shown, human-murine chimeric antibody) VH: QVQLQQPGAELVKPGASVKLSCKASGYTFTNNWVHWVKQRPGQGLEWTGMIHPDSGSTIYNEKFQSKATLTVDKSSSTAYMQLSSLTSEDSAVYYCARGYYDSSSYYAMDYWGQGTSVTVSS VL: NIQMTQTTSSLSASLGDRVTISCSASQGIFNYLNWYQQKPDGTVKLLIYYTSSLHSGVPSRFSGSGSGTDYSLTISNLEPEDIATYYCQQYSKLPWTFGGGTKLEIKR
0.03	0.04	0.03	0.03	0.04	0.04	0.06		F4.18.4 (antibody, human IgG1, kappa, V domains shown, human-murine chimeric antibody) VH: QVQLHQSGAEMAKPGASVNLSCKTSGFTFTDYGISWVKQRTRQGLEWIGDIYPRHINIYYNEKFKDKATLTADRSSSTAYMELRSMTSEDSAVYFCARRGTTGRGALDYWGQGTSLTVSS VL: DILLTQSPAILSVSPGERVSFSCRASQSIGTSIHWYQQRTNGSPRLLIKYAFESISGIPSRFGGSGSRTDFTLTINSVESEDIADYYCQQTYNWPYTFGGGTKLEIKR
2.64	0.09	2.8	1.63	0.07	0.33	3.03		F3.54.12 (antibody, human IgG1, kappa, V domains shown, human-murine chimeric antibody) VH: QVQLQQSGAELVRPGASVKLSCKASGYTFTDYEMHWVKQTPVHGLEWIGAIDPETGNTAYIQKFKGKATLTTDKSSSTAYMELRSLTSEDSAVYYCTRFYSYSHWGQGTTLTVSS VL: DVVMTQTPLSLPVSLGDQASISCRSSQSLVHSNGNTYLHWYLQKPGQSPKLLIYKVSNRFSGVPDRFSGSSSGTDFTLKISRVEAEDLGVYFCSQNTHVPPTFGGGTKLEIKR
							no binding (tested: 100 nM)	F2.154.1 human-murine chimeric antibody (antibody, human IgG1, kappa, V domains shown, Chimeric) VH: QVQLQQSGAELVRPGASVKLSCKASGYRFTDYEMHWVKQTPVHGLEWIGTIDPETGNTAYTQKFMDKATLTADKSSSTAYMELRSLTSEDSAVYYCTRGYSFTYWGQGTLATVSA VL: DVLMTQTPLSLPVSLGDQASISCRSSQNIVHSNGNTYLQWYLQKPGQSPKLLIFKVSNRFSGVPDRFSGSGSGTDFTLKISRVEAEDLGVYYCFQGSHVPFTFGTGTKLEIKR
1.21	0.05	2.88	0.19	0.05	0.05	2.94		F3.81.19 (antibody, human IgG1, kappa, V domains shown, human-murine chimeric antibody) VH: QVQLQQSGAELVRPGASVKLSCKASGYTFTDYEMHWVKQTPVHGLEWIGTIDPETGNTAYNQKFKGKATLTADKSSSTAYMELRSLTSEDSAVYYCTRPYSLTYWGQGTLVTVSA VL: DVLLTQTPLSLPVSLGDQASISCRSSQSFVHSNGDTYLQWYLQKPGQSPKLLIYKVSNRFSGVPDRFSGSGSGTDFTLKISRVEAEDLGVYYCFQGSHVPYTFGSGTKLEIKR
							no binding (tested: 100 nM)	F2.39.2 human-murine chimeric antibody (antibody, human IgG1, kappa, V domains shown, Chimeric) VH: QVQLQQSGAELVRPGASVKVSCKASGYTFTDYEMHWMKQTPVHGLEWIGANEPETGRSAYDQKFKGKATLTADKSSSTAYMELRSLTSEDSAVYYCTRFYSFAYWGQGTLVTVSA VL: DVVMTQTPLSLPVSLGDQASISCRSSQGLVHNNGNTYLHWYLQKPGQSPKLLIYKVSNRFSGVPDRFSGSGSGTDFTLKISRVEAEDLGVYFCSQNTHVPPTFGGGTKLEIKR
0.03	0.04	0.04	0.03	0.04	0.04	0.08		F4.21.16 (antibody, human IgG1, kappa, V domains shown, human-murine chimeric antibody) VH: DVQLQESGPGLVKPSQSLSLTCSVTGYSITSGYYWNWIRQFPGNKLEWMGYISYDVTVNYNPSLKNRISITRDTSKNQFFLKLNSVTTEDTATYYCATITSVASMDHWGQGTSVTVSS VL: DILMTQTPLSLPVSLGDQASISCRSSQNIVHRNGNTYLEWYLQKPGQSPKLLLYKVSNRFSGVPDRFSGSGSGTDFTLKISRVEAEDLGIYYCFQGSHFPFTFGSGTKLEIKR

Continued, binder first:

Binder	OD450 nm (polypeptide GC3pep [1]) [OD450 nm]	OD450 nm (polypeptide GC3pep [2]) [OD450 nm]	OD450 nm (polypeptide GC3pep [3]) [OD450 nm]	OD450 nm (polypeptide GC3pep [4]) [OD450 nm]	OD450 nm (polypeptide GC3pep [5]) [OD450 nm]	OD450 nm (polypeptide GC3pep [6]) [OD450 nm]	OD450 nm (polypeptide GC3pep [7]) [OD450 nm]	binding result [8]
F2.152.3 (antibody, human IgG1, kappa, V domains shown, human-murine chimeric antibody) VH: EVQLQQSGPELVKPGASVKMSCKASGYTFTDYYMTWVKQSHGKSLEWIGRVNPRNGDTTYNQKFEGRATLTLDKSLSTAFMQLNSLTSEDSAVYYCINSKGHFDYWGQGTTLTVSS VL: DVLMTQTPLSLPVSLGDQASISCRSSQSIVHSNGNTYLEWFLQKPGQSPKSLIYKVSNRFSGVPDRFSGSGSGTDFTLKISRVEAEDLGVYYCFQGSHVPPTFGAGTKLELKR	2.18	0.09	2.43	1.53	0.05	0.35	2.63	
F2.23.8 (antibody, human IgG1, kappa, V domains shown, human-murine chimeric antibody) VH: QVQLQQSGAELVRPGASVKLSCKASGYTFTDYEMHWVKQTPVHGLEWFGAIDPETGGTAYNQKFRAKATLTADKSSSTAYMELRSLTSEDSAVYYCTRFYSFAYWGQGTLVTVSA VL: DVVMTQTPLSLPVSLGDQASISCRSSQSLVHSNGNTYLQWYLQKPGQSPKLLIYKVSNRFSGVPDRFSGSGSGTDFTLKITRVEAEDLGVYFCSQSTHVPYTFGSGTKLEIKR	2.12	0.1	2.42	1.38	0.07	0.3	2.51	
F2.39.2 (antibody, human IgG1, kappa, V domains shown, human-murine chimeric antibody) VH: QVQLQQSGAELVRPGASVKVSCKASGYTFTDYEMHWMKQTPVHGLEWIGANEPETGRSAYDQKFKGKATLTADKSSSTAYMELRSLTSEDSAVYYCTRFYSFAYWGQGTLVTVSA VL: DVVMTQTPLSLPVSLGDQASISCRSSQGLVHNNGNTYLHWYLQKPGQSPKLLIYKVSNRFSGVPDRFSGSGSGTDFTLKISRVEAEDLGVYFCSQNTHVPPTFGGGTKLEIKR	2.21	0.09	2.38	1.35	0.05	0.32	2.58	
F2.92.1 (antibody, human IgG1, kappa, V domains shown, human-murine chimeric antibody) VH: QVQLQQSGAELVRPGASVKLSCKASGYIFSDYEIHWVKQTPVHGLECIGAVDPETGGTAYNQKFKGKATLTADKSSSTAYMELRSLTSEDSAVYFCTRFYSFAYWGQGTLVTVST VL: DVVMTQTPLSLPVSLGDQGSISCRSSQSLVHSNGNTYLQWYLQKPGQSPKLLIYKVSNRFSGVPDRFSGSGSGTDFTLKISRVEAEDLGVYFCCQSTHVLPTFGGGTKLEIKR	1.92	0.07	2.28	0.85	0.05	0.15	2.41	
F3.38.7 (antibody, human IgG1, kappa, V domains shown, human-murine chimeric antibody) VH: QVQLQQSGAELVRPGASVKLSCKASGYTFTDYEIHWVKQTPVLGLEWIGAIDPKTGNTAYNQKFMGKATLTADKSSTTAYMDLRSLTSEDSAVYYCTRYFSFAYWGQGTLVTVSA VL: DVLMTQTPLSLPVSLGDQASISCRSSQTFVHSNGNTYLQWYLQKPGQSPKLLIYKVSNRFSGVPDRFSGSGSGTDFTLKISRVEAEDLGVYYCFQGSHVPYTFGSGTKLEIKR	2.57	0.06	2.83	1.01	0.05	0.19	3.22	
